Like-named read-outs stand apart in the source and are kept apart here.

Data set [1] concerns the target T1, CRX HD R41Q (UniProt O43186 31-107, R41Q). Kind of data set: SEC-MALS. (In gel filtration, larger molecules generally elute earlier.)
The target in data set [2] is T2, CRX HD E42K (UniProt O43186 31-107, E42K). Kind of data set: SEC-MALS.
Data set [3] addresses CRX HD (His) (UniProt O43186 31-107). Kind of data set: BLI.
Data set [4] concerns the target T1, CRX HD R41Q. Put plainly: BLI. For orientation: BLI is a label-free optical method that tracks binding on a fibre tip over time.
Data set [5] addresses T2, CRX HD E42K. Kind of data set: BLI.
The target in data set [6] is CRX HD R90W (UniProt O43186 31-107, R90W). Kind of data set: BLI.
For data set [7], the target named is Cy3-CRX HD (UniProt O43186 31-107). Put plainly: smTIRFM.
In data set [8] the target is T3, Cy3-CRX HD;NRL DBD (;, UniProt O43186;P54845 31-107;128-237, |). Put plainly: smTIRFM.
Data set [9] addresses T3, Cy3-CRX HD;NRL DBD. Put plainly: smTIRFM. This is another data set of the same source.

T3 sequence (O43186 31-107, chain 1 of 2): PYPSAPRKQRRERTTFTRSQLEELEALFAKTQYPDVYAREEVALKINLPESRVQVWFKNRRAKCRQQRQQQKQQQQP
T3 sequence (P54845 128-237, chain 2 of 2): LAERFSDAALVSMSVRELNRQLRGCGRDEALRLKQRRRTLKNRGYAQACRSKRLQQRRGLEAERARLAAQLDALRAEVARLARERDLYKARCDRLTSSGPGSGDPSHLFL
T1 sequence (O43186 31-107 R41Q): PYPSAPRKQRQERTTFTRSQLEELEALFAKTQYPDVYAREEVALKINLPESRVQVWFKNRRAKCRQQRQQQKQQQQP
T2 sequence (O43186 31-107 E42K): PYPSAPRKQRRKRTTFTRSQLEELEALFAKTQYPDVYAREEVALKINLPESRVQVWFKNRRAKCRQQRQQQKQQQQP
Chain of CRX HD (His) (O43186 31-107): as the sequence (O43186 31-107, chain 1 of 2) above
Chain of Cy3-CRX HD (O43186 31-107): as the sequence (O43186 31-107, chain 1 of 2) above
Chain of CRX HD R90W (O43186 31-107 R90W): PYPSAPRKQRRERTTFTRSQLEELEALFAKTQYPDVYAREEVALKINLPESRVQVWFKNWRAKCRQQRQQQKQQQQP

B1: Ret4 21-mer (dsDNA)
DNA 1: CCAGGAGCTTAGGAGGGGGAG
DNA 2: CCTCCCCCTCCTAAGCTCCTG
Turning to B1, the binding result in data set [1] and in data set [2] was “binds” throughout.

B2: Ret4 20-mer biotinylated (dsDNA)
DNA 1: CAGGAGCTTAGGAGGGGGAG
DNA 2: CTCCCCCTCCTAAGCTCCTG
For the molecule B2, the dissociation constant Kd (usually the concentration at which binding is half-saturated) was 430 ± 30 nM in data set [3], 1250 ± 30 nM in data set [4], 30 ± 10 nM in data set [5] and 900 ± 30 nM in [6].

B3: NRE-Ret4 38-mer biotinylated (dsDNA)
DNA 1: CCAGATGCTGATTCAGCCAGGAGCTTAGGAGGGGGAGG
DNA 2: CCTCCCCCTCCTAAGCTCCTGGCTGAATCAGCATCTGG
Take B3: the results for the Kd in data set [7], in [8] and in data set [9] were 55.1 nM, 28 nM and 39.6 nM, respectively.

Values taken from article PMC11455607.
